Series [1] concerns pancreatic cancer. The experiment in a line: [18F]FP-R01-MG-F2 vs [18F]FDG PET/CT in a pancreatic cancer patient (Stanford). Conditions: FDG, 1 hr. How it is done: The line was flushed with at least 10 ml normal saline after injection. • Blood samples for blood time activity measurements were taken at 1, 3, 5, and 10 min after tracer administration and then at 30-minute intervals for up to 3 h after tracer injection. The counts in whole blood and plasma were measured by gamma counter (Perkin Elmer Wizard 1470). […] The scan was performed over the abdominal region to include the pancreas. Attenuation correction was employed via CT (120 kV, 10 mA). […] The scan was performed over the chest region. Attenuation correction was employed via CT (120 kV, 10 mA). • Static total-body (vertex-to-toe) PET/CT scans were acquired at 60 min and 120 min post injection. CT was performed at 120 kV; it was dose-modulated based on body habitus with current ranging from 10-105 mA for the 60-minute scan. […] EKG data was analyzed to assess changes in overall rhythm of the heart. • On the day of the study, participants were asked to void frequently to reduce radiation exposure. Urine samples were collected at prior to tracer administration (baseline), prior to the static PE scans, at the end of the study day 1, and at the follow up visits 1 day and 7 days after tracer administration.
Upon co-registration of the PET and CT images, the CT images were used to determine regions of interest for the organs or tissues reported in the manuscript. These ROIs were applied to the PET images of the brain, pituitary gland, breast, lower and upper large intestine, small intestine, stomach, pancreas, heart wall, liver, lung, muscle, red marrow, bone, skin, and thyroid gland. For high uptake organs such as the kidneys, bladder and for the whole body, threshold-based segmentation of PET images were used to determine a close-fitting ROI around the entire organ or whole body. In order to determine accuracy, these PET-derived ROIs were compared to the CT overlay for a close match.

In series [2] the target is T1, human integrin αvβ6 (Homo sapiens, UniProt P06756+P18564, DEL708-788).
T1 construct: purchased R&D Systems
T1 sequence (P06756 31-992 limits assumed, stated change not applied): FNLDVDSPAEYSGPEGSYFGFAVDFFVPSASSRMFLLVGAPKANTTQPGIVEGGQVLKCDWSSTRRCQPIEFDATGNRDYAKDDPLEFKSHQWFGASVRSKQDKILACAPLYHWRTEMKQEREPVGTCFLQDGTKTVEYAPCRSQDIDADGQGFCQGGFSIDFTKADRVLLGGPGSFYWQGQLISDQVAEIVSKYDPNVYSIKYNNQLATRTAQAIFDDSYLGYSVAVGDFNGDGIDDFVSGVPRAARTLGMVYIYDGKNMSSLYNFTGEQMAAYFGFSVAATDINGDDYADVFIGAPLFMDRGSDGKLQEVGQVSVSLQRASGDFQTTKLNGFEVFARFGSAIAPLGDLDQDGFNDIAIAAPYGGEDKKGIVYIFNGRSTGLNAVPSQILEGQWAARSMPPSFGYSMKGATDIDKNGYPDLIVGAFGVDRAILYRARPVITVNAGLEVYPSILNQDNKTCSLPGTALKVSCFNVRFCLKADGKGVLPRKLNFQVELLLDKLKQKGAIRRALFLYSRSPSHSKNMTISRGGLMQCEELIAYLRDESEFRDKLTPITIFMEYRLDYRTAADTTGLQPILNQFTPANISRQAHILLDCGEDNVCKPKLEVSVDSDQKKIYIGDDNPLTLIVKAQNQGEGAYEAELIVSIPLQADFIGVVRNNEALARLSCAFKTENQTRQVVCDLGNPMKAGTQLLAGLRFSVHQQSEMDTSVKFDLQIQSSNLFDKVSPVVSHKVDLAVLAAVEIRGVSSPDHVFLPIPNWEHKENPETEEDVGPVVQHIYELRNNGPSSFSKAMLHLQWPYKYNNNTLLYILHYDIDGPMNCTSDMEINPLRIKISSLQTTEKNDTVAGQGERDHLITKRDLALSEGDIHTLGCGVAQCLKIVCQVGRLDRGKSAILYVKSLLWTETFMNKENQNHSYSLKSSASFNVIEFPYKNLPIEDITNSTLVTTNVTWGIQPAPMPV
T1 sequence (P18564 22-707 limits assumed, stated change not applied): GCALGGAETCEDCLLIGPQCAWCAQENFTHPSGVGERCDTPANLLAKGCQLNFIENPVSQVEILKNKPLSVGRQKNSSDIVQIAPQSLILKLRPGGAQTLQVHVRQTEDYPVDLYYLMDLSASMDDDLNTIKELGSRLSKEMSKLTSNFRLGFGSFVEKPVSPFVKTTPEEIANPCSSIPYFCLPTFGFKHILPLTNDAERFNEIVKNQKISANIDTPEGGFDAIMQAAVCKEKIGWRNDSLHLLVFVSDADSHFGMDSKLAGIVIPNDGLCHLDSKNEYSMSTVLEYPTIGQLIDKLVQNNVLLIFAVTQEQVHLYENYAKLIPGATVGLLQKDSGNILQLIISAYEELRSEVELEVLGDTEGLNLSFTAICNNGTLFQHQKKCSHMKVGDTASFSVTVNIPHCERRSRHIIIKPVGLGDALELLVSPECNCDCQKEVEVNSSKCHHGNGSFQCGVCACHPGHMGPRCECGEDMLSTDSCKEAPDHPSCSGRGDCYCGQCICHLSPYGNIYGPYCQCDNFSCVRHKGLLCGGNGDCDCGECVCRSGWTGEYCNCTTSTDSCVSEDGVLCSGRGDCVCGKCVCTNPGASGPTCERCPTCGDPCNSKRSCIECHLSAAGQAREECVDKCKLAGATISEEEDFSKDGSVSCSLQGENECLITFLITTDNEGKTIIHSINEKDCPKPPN
In words: Competition binding (IC50) against yeast surface-displayed R01-MG. Conditions: compete with R01-MG displayed on yeast.

Series [3] deals with αvβ6 expressing BxPC3 pancreatic cancer xenografts.
Procedure: (§1) Female athymic nude mice, 4–6 weeks old (Charles River), were subcutaneously shoulder-injected with 10^7 cells suspended in 100 µL PBS. Mice were used for imaging and biodistribution studies when xenografted tumors grew to a diameter of ~1 cm.
(§2) Tumor-bearing Nu/Nu female mice (n = 3 for each probe) were anesthetized using 2% isoflurane in oxygen and injected with ~100 µCi (~0.15 nmol) of the tracers described above via the tail vein. Five-minute static PET scans were acquired on an Inveon PET-CT or Inveon D-PET scanner (Siemens Healthcare, Malvern PA). Images were reconstructed by a two-dimensional ordered expectation maximum subset algorithm and calibrated as described below. ROIs were drawn over the tumor on decay-corrected whole-body images using Inveon Research Workplace (IRW) software (Siemens) or ASIPro VM software (Siemens). ROIs were converted to counts g^−1 min^−1, and %ID g^−1 values were determined assuming a tissue density of 1 g ml^−1.
(§3) Scanner activity calibration was performed to map between PET image units and units of radioactivity concentration. A preweighed 50-mL centrifuge tube was filled with distilled water and ^64CuCl2 (∼9.3 MBq [∼250 μCi] as determined by the dose calibrator) was used to simulate the whole body of the mouse. This tube was weighed, centered in the scanner aperture, and imaged for a 30-min static image, single bed position. From the sample weight and assuming a density of 1 g ml^−1, the activity concentration in the bottle was calculated in units of μCi mL^−1. Eight planes were acquired in the coronal section. A rectangular region of interest (ROI) (counts/pixel/s) was drawn on the middle of eight coronal planes.
A short description of series [4]: in vivo. To be noted: female, athymic nude (Nu/Nu), mouse, iv, total radioactivity; for tissue uptake at 2 h: microPET 2 hr; for tissue uptake at 4 h: microPET 4 hr; for tissue uptake at 24 h: microPET 24 hr.
Procedure: as §1, §2, §3
Where [5] appears, read: microPET 1 hr, individual mice, listed as Ro1-MR DOTA Cu-64.
[6] abbreviates: microPET 4 hr, individual mice, listed as R01-MR DOTA Cu-64.
The mark [7] stands for this setting: microPET 24 hr, individual mice, listed as R01-MR DOTA Cu-64.
The mark [8] stands for this setting: tumor (BxPC3 xenograft), Tumor avb6(+), individual mice.

Structures are written as SMILES. “And” between values parts separate entries of the source, which are not always exact repeats. Equal entries are not always repeated. Where two headings read alike, the source gives them in different places. Where a SMILES comes first, the peptide text is derived from it. Bridges are numbered along the chain shown (N, C = ends). The star is where a group is joined. DOTA = O=C(O)CN1CCN(CC(=O)O)CCN(CC(=O)*)CCN(CC(=O)O)CC1
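Throughout, for Tumor avb6(+): shoulder subcutaneous xenografts near 1 cm, tracer given via tail vein, 5-min static PET, ROI activity on decay-corrected images converted to %ID/g with tissue density taken as 1 g/mL.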
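Throughout, for kidney uptake relative to the other two candidates: shoulder subcutaneous xenografts near 1 cm, tracer given via tail vein, 5-min static PET, ROI activity on decay-corrected images converted to %ID/g with tissue density taken as 1 g/mL.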
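Throughout, for kidney: shoulder subcutaneous xenografts near 1 cm, tracer given via tail vein, 5-min static PET, ROI activity on decay-corrected images converted to %ID/g with tissue density taken as 1 g/mL.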
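Throughout, for tumor: shoulder subcutaneous xenografts near 1 cm, tracer given via tail vein, 5-min static PET, ROI activity on decay-corrected images converted to %ID/g with tissue density taken as 1 g/mL.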

Consider `OC[C@H]1O[C@@H](O)[C@H]([18F])[C@@H](O)[C@@H]1O` [FDG], for which, in series [1], the “Bl, PET uptake” value was determined as 21.1; the “Bn, PET uptake” value is listed as 1.4; the “Br, PET uptake” value is on record as 8.1; the “Brs, PET uptake” value is 0.32. In series [1], the “CA, PET uptake” value worked out at 4.1; the “HW, PET uptake” value is on record as 2; the “LLI, PET uptake” value came to 2.2; the “Ln, PET uptake” value was found to be 0.59. In series [1], the “Lv, PET uptake” value came out at 2.9; the “Ms, PET uptake” value is given as 0.53; the “RM, PET uptake” value worked out at 0.29; the “SI, PET uptake” value was found to be 2.5. Besides, in series [1], the “Sk, PET uptake” value was 0.38; the “Sp, PET uptake” value amounted to 2.9; the “St, PET uptake” value was 0.16; the “Tr, PET uptake” value is 0.9. Also, in series [1], the “ULI, PET uptake” value came to 1.8 and the “WB, PET uptake” value is reported as 0.79.
On to `CC[C@H](C)[C@@H]1NC(=O)[C@@H](NC(=O)CNC(=O)C(C)F)CSSC[C@@H]2NC(=O)[C@H](C)NC(=O)CNC(=O)[C@@H]3CCCN3C(=O)[C@@H]3CSSC[C@@H](C(=O)NCC(N)=O)NC(=O)[C@H](Cc4ccc(O)cc4)NC(=O)CNC(=O)[C@H](CC(N)=O)NC(=O)CNC(=O)[C@H](CCCNC(=N)N)NC(=O)[C@H](CSSC[C@H](NC(=O)[C@H](CCCNC(=N)N)NC(=O)[C@H](Cc4ccccc4)NC(=O)[C@H](CC(C)C)NC(=O)[C@H](CC(C)C)NC(=O)[C@H]([C@@H](C)O)NC(=O)CNC(=O)[C@H](CC(C)C)NC(=O)[C@H](CC(=O)O)NC(=O)[C@H]([C@@H](C)O)NC(=O)[C@H](CCCNC(=N)N)NC(=O)CNC(=O)[C@H](CC(N)=O)NC(=O)[C@H](CC(C)C)NC1=O)C(=O)N[C@@H](CCCNC(=N)N)C(=O)N[C@@H](CCCNC(=N)N)C(=O)N[C@@H](CC(=O)O)C(=O)N[C@@H](CO)C(=O)N[C@@H](CC(=O)O)C(=O)N3)NC(=O)[C@H]([C@@H](C)CC)NC2=O` (some centres unmarked) [[^19F]FP-R01-MG-F1], for which the “binding affinity for integrin avb6 in competition binding (IC50), in words” value in series [2] is listed as “subnanomolar”.
With `CC[C@H](C)[C@@H]1NC(=O)[C@@H](NC(=O)CNC(=O)CN2CCN(CC(=O)O)CCN(CC(=O)O)CCN(CC(=O)O)CC2)CSSC[C@@H]2NC(=O)[C@H](C)NC(=O)CNC(=O)[C@@H]3CCCN3C(=O)[C@@H]3CSSC[C@@H](C(=O)NCC(N)=O)NC(=O)[C@H](Cc4ccc(O)cc4)NC(=O)CNC(=O)[C@H](CC(N)=O)NC(=O)CNC(=O)[C@H](CCCNC(=N)N)NC(=O)[C@H](CSSC[C@H](NC(=O)[C@H](CCCNC(=N)N)NC(=O)[C@H](Cc4ccccc4)NC(=O)[C@H](CC(C)C)NC(=O)[C@H](CC(C)C)NC(=O)[C@H]([C@@H](C)O)NC(=O)CNC(=O)[C@H](CC(C)C)NC(=O)[C@H](CC(=O)O)NC(=O)[C@H]([C@@H](C)O)NC(=O)[C@H](CCCNC(=N)N)NC(=O)[C@H](CCCNC(=N)N)NC(=O)[C@H](CC(N)=O)NC(=O)[C@H](CC(C)C)NC1=O)C(=O)N[C@@H](CCCNC(=N)N)C(=O)N[C@@H](CCCNC(=N)N)C(=O)N[C@@H](CC(=O)O)C(=O)N[C@@H](CO)C(=O)N[C@@H](CC(=O)O)C(=O)N3)NC(=O)[C@H]([C@@H](C)CC)NC2=O` [[^64Cu]DOTA-R01-MR, metal not drawn] ({DOTA}-GCILNRRTDLGTLLFRCRRDSDCPGACICRGNGYCG-NH2; disulfide 2-27, 17-29, 23-35), in series [3] (1 h p.i.), the “kidney uptake relative to the other two candidates” value is on record as ~ 3 fold. Also, the Tumor in series [3] (PET, 1 h p.i., αvβ6 (+), average ± SD, n = 3) is reported as ~ 3 %ID g^−1. The Kidney in series [3] (PET, 1 h p.i., average ± SD, n = 3) was ~ 90 %ID g^−1; in series [3] (setting [6]), 82.8 %ID/g; in series [3] (setting [7]), 38.15 %ID/g. Moreover, the “Tumor avb6(+)” value is 3.249 %ID/g in series [3] (microPET 1 hr, individual mice, one line per mouse, listed as Ro1-MR DOTA Cu-64) and 3.535 %ID/g in series [3] (setting [7]). Also, the Liver amounted to 4.713 %ID/g in series [3] (setting [5]) and 4.22 %ID/g in series [3] (setting [6]). The Muscle was 0.5407 %ID/g and 0.5349 %ID/g in series [3] (setting [5]); 0.5174 %ID/g in series [3] (microPET 2 hr, individual mice, listed as R01-MR DOTA Cu-64); 0.4687 %ID/g in series [3] (setting [6]); 0.5142 %ID/g in series [3] (setting [7]). Moreover, the tissue uptake at 1 h in series [4] (kidney, PET, 1 h p.i., average ± SD, n = 3) was 90 ± 3.64 %ID/g; in series [4] (kidney, microPET 1 hr, individual mice), 94 %ID/g; in series [4] (liver, PET, 1 h p.i., average ± SD, n = 3), 4.63 ± 0.09 %ID/g; in series [4] (liver, microPET 1 hr, individual mice) it was 4.66 %ID/g; in series [4] (muscle, PET, 1 h p.i., average ± SD, n = 3), 0.536 ± 0.004 %ID/g; in series [4] (muscle, microPET 1 hr, individual mice), 0.533 %ID/g. The tissue uptake at 1 h in series [4] (tumor (BxPC3 xenograft), Tumor avb6(+), microPET 1 hr, individual mice, one line per mouse) is 3.27 %ID/g; in series [4] (tumor (BxPC3 xenograft, αvβ6 positive), Tumor, PET, 1 h p.i., αvβ6 (+), average ± SD, n = 3), 3.45 ± 0.34 %ID/g. Besides, the tissue uptake at 2 h amounted to 90.5 %ID/g in series [4] (kidney, individual mice); 3.9 %ID/g in series [4] (liver, individual mice); 0.516 %ID/g in series [4] (muscle, individual mice); 3.46 %ID/g in series [4] (setting [8]). For the same molecule, the tissue uptake at 4 h in series [4] (kidney, individual mice) was determined as 82.3 %ID/g; in series [4] (liver, individual mice) it was 3.44 %ID/g; in series [4] (muscle, individual mice), 0.467 %ID/g; in series [4] (setting [8]) it was 2.55 %ID/g. The tissue uptake at 24 h in series [4] (kidney, individual mice) came out at 37.8 %ID/g; in series [4] (liver, individual mice), 6.99 %ID/g; in series [4] (muscle, individual mice), 0.513 %ID/g; in series [4] (setting [8]) it was 3.2 %ID/g. The tissue to tissue ratio at 1 h in series [4] (tumor / muscle, 100 uCi) worked out at 6.43 ± 0.58.

As usually defined, the tissue uptake is the percentage of the injected dose found per gram of tissue.

These data come from publication PMC6791878, “Evaluation of integrin αvβ6 cystine knot PET tracers to detect cancer and idiopathic pulmonary fibrosis” (Nature Communications, 2019).
